# Source: publication doi:10.1101/402123 (bioRxiv, 2018)
# Changes are numbered by the printed parent chain. In names and notes the source's numbering stands. No end group written: not given here. fluorescein = N-terminal fluorescein label
# T1: fluorescein-labeled BP230 peptide 37-55 (human, UniProt Q03001-8 37-55)
# T1 peptide (looked up): fluorescein-GPTLINSCISFGSESFDGH
# T2: BP230 41-162 (human, UniProt Q03001-8 41-162, Oregon Green 488 on thiol groups)
# T2 sequence (looked up): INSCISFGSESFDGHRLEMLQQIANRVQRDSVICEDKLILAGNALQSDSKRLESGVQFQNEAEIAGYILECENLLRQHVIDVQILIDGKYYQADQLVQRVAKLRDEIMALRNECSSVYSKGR
# T3: BP230 10-162 T39D (human, UniProt Q03001-8 10-162, T39D, Oregon Green 488 on thiol groups)
# T3 sequence (looked up): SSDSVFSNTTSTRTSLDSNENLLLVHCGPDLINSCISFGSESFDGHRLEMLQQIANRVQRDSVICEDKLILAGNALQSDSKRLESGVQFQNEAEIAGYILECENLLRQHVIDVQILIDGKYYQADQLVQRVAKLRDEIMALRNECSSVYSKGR
# T4: β4-CS-FnIII-3,4 (1436-1666) T1663R (human, UniProt P16144-2 1436-1666, T1663R)
# T4 sequence (looked up): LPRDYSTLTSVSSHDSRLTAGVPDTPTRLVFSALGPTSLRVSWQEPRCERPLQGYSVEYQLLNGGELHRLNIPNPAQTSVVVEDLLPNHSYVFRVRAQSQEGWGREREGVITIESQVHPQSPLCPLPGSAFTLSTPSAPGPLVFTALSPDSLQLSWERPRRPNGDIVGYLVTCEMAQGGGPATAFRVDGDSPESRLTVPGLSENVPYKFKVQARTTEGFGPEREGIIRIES
# T5: β4-FnIII-3,4 (1457-1666) mutant T1663R (human, UniProt P16144-2 1457-1666, T1663R)
# T5 sequence (looked up): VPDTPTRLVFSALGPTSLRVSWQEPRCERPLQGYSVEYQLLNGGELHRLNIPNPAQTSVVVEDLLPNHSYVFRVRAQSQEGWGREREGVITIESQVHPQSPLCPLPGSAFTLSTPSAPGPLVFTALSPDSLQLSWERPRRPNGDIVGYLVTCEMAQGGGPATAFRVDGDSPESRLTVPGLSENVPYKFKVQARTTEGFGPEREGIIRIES
# B1: integrin β4 1436-1666 (β4-CS-FnIII-3,4) (domain or fragment, human, UniProt P16144-2 1436-1666, looked up)
# chain: T4 sequence (looked up) with R228T
# B2: β4-CS-FnIII-3,4 (1436-1666) P1576R (domain or fragment, human, UniProt P16144-2 1436-1666, looked up)
# chain: T4 sequence (looked up) with P141R, R228T
# B3: BP230 10-162 S46A (domain or fragment, human, UniProt Q03001-8 10-162, looked up)
# chain: T3 sequence (looked up) with D30T, S37A
# modifications: Oregon Green 488 on thiol groups
# B4: β4-CS-FnIII-3,4 (1436-1666) I1661R/T1663R (domain or fragment, human, UniProt P16144-2 1436-1666, looked up)
# chain: T4 sequence (looked up) with I226R
# B5: fluorescein-labeled BP230 peptide 26-55 (peptide, UniProt Q03001-8 26-55, looked up)
# peptide: fluorescein-DSNENLLLVHCGPTLINSCISFGSESFDGH
# modifications: cysteine pairing not given here
# Columns and labels:
# [1] = biological target: T1, fluorescein-labeled BP230 peptide 37-55; test: fluorescence polarisation
# BP230 41-162 = biological target: T2, BP230 41-162; test: fluorescence polarisation
# BP230 10-162 T39D = biological target: T3, BP230 10-162 T39D; test: fluorescence polarisation
# [2] = biological target: fluorescein-labeled BP230 peptide 26-47 (human) (UniProt Q03001); test: fluorescence polarisation
# [3] = biological target: B5; test: fluorescence polarisation
# [4] = biological target: B1; test: fluorescence polarisation
# [5] = biological target: T4, β4-CS-FnIII-3,4 (1436-1666) T1663R; test: fluorescence polarisation
# [6] = biological target: T5, β4-FnIII-3,4 (1457-1666) mutant T1663R; test: crystal structure
binder,measurement,setting,value
B1,fold increase in Kd against the BP230 26-55 peptide,[1],3 fold
same,fold increase in Kd against the longer BP230 constructs,BP230 41-162,5 fold
same,fold increase in Kd against WT BP230 10-162,BP230 10-162 T39D,~3 fold
same,fold increase in Kd against the BP230 26-55 peptide,[2],5 fold
B2,fold increase in Kd against WT β4,[3],> 2 fold
B3,binding result,[4],binds
B4,fold reduction in Kd against WT β4,[3],~8 fold
B5,binding result,[5],binds
"DSNENLLLVHCGPTLINSCISFGSESFDGH (peptide, UniProt Q03001-8 26-55, looked up) [unlabeled BP230 peptide 26-55]",binding result,[6],binds
